Assay results: US20080267949A1, “Peptides capable of binding to serum proteins” (Ablynx N.V., priority 2006, published 2008)
Ends that are not written are not given here. c2 linker = not defined here

Experiments:
[1] = molecular target: T1, ovalbumin (negative control antigen) (UniProt P01012 2-386); assay: phage binding assay: ovalbumin coated on Maxisorp, M13 phage in 1/2 dilution series from 10^12 phages/mL, Odyssey intensity
T1 construct: Bought protein
T1 sequence (looked up): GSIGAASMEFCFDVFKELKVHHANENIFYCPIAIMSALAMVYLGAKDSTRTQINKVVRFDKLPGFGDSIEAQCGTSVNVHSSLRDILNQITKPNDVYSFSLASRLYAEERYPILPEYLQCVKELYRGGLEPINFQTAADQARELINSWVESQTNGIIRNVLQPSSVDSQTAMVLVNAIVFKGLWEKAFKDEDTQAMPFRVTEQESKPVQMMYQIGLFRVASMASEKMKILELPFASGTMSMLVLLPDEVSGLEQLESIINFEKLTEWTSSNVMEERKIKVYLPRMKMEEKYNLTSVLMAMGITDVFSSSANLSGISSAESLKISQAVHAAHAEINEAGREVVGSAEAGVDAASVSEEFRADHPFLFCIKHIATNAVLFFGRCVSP
Method: The phage binding assay to HSA and ovalbumin was performed essentially as described in example 4. Phages, produced in 10 mL culture volume, were incubated on both HSA and ovalbumin in a ½ dilution series, starting with 10¹² phages/mL. Dose-dependent binding to HSA was retained upon fusion of the peptide 17D12 at the C-terminus of a non-albumin binding intact VHH in the presence or absence of a GlySer linker (FIG. 9).

cynomolgus serum albumin = molecular target: T2, cynomolgus serum albumin (cynomolgus, UniProt A2V9Z4 25-608); assay: phage binding assay on coated Maxisorp wells, 5 phage dilutions per peptide (concentrations not given), Odyssey image
T2 construct: also called CSA; cynoSA
T2 sequence (A2V9Z4 25-608 limits assumed): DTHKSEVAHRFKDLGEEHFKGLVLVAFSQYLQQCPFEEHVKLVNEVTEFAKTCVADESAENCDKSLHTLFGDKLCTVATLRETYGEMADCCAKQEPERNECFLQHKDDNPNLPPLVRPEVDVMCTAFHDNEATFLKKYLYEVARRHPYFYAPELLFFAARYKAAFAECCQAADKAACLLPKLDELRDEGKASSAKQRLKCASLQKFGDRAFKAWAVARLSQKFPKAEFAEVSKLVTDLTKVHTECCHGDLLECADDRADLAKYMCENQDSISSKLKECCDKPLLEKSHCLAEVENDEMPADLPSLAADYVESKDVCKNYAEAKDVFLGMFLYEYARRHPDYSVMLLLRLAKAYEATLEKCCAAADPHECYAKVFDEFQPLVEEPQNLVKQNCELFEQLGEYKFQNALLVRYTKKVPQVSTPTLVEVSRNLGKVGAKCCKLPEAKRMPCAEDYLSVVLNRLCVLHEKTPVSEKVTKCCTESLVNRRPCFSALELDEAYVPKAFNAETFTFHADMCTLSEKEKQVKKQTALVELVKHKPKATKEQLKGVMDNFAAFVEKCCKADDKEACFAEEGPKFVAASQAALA
Method: (§1) Binding of 17D12, as selected from primary screening after 2 selection rounds on HSA, to serum albumin of different species [mouse serum albumin (MSA, A3559, Sigma), cynomolgus serum albumin (CSA, in-house production), bovine serum albumin (BSA, A6003, Sigma) and HSA] and to negative control antigens [ovalbumin, human tumor necrosis factor α (TNF, in-house production)] was assessed using different phage concentrations. Additionally, similar binding studies were performed with two truncated variants of 17D12. Both peptides, i.e. 17D12-CDR3-NC (SEQ ID NO: 26) and 17D12-CDR3-C (SEQ ID NO;27), lack the flanking FR residues of 17D12 and the former is a non-constrained loop, whereas the latter is constrained (FIG. 4).
(§2) The phage binding assay was performed essentially as described in example 4. Full length 17D12 peptide as well as truncated peptides, 17D12-CDR3-NC and 17D12-CDR3-C, bind dose-dependently to HSA and CSA, whereas reactivity to MSA and BSA was not apparent in the assay performed (FIG. 6). There is no significant non-specific binding of 17D12 and 17D12-CDR3-NC to irrelevant proteins tested (ovalbumin and TNF). In contrast, there is a subtle degree of non-specific binding with the constrained truncated peptide.

human serum albumin [2] = molecular target: T3, human serum albumin (human, UniProt P02768 25-609); assay: phage binding assay: 10 µg/mL HSA coated on Maxisorp, M13 phage displaying the peptide on pIII in 1/2 dilution series, anti-M13 + goat anti-mouse IRDye700, Odyssey intensity
T3 construct: Bought protein; also called HSA
Method: After two selection rounds, monoclonal phage were screened for binding on HSA versus negative control antigen, ovalbumin (A5378, Sigma). Wells of a Maxisorp microtiter plate (Nunc) were coated using 10 μg/mL HSA or ovalbumin and blocked with SuperBlock T20 PBS Blocking Buffer (Pierce) to prevent non-specific binding. Phages, produced in 96-well plate, were diluted 1/10 in 1:1 (v:v) Superblock T20 PBS Blocking Buffer:PBS+0.05% Tween-20 and incubated on both HSA and ovalbumin. Bound phages were detected using anti-M13 (GE Healthcare) and goat anti-mouse IRDye700 (Rockland) and signals were read-out on Odyssey (LI-COR Biosciences). […] This peptide is referred to as 17D12. Its full amino acid sequence is given in SEQ ID NO: 1, and its encoding nucleotide sequence is given in SEQ ID NO:2. The amino acid sequence of the CDR3 loop is given in SEQ ID NO:3.
The phage binding assay was performed essentially as described in example 3. Phages, produced in 10 mL culture volume, were incubated on both HSA and ovalbumin in a ½ dilution series, starting with 7.5×10¹¹ phages/mL. […] Non-specific binding to ovalbumin is slightly higher for the constrained truncated peptide.

bovine serum albumin = molecular target: T4, bovine serum albumin (bovine, UniProt P02769 25-607); assay: phage binding assay on coated Maxisorp wells, 5 phage dilutions per peptide, Odyssey image
T4 construct: also called BSA
T4 sequence (P02769 25-607 limits assumed): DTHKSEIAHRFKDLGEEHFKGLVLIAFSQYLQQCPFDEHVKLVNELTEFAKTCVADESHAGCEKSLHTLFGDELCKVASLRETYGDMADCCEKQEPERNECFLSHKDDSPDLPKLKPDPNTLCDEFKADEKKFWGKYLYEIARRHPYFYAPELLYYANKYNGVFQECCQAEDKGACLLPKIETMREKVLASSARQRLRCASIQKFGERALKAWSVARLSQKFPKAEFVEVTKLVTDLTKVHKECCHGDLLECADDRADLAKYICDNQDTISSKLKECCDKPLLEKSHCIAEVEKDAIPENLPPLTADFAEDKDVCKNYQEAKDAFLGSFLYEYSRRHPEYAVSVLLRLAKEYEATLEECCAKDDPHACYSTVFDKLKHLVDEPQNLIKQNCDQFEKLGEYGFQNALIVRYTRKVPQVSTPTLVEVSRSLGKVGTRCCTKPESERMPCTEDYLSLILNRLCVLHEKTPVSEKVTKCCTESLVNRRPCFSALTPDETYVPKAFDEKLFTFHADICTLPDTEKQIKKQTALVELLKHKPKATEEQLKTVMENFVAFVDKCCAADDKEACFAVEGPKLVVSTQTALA
Method: as §1, §2

[3] = molecular target: T5, human tumor necrosis factor α (human, UniProt P01375 77-233); assay: as above
T5 construct: Negative control antigen; also called TNF
T5 sequence (P01375 77-233 limits assumed): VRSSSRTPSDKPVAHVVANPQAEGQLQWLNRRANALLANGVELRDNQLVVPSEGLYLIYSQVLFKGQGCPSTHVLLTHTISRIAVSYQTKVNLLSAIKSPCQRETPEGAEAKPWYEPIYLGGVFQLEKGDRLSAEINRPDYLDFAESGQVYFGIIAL
Method: as §1, §2

mouse serum albumin = molecular target: T6, mouse serum albumin (mouse, UniProt P07724 25-608); assay: as above
T6 construct: also called MSA
T6 sequence (P07724 25-608 limits assumed): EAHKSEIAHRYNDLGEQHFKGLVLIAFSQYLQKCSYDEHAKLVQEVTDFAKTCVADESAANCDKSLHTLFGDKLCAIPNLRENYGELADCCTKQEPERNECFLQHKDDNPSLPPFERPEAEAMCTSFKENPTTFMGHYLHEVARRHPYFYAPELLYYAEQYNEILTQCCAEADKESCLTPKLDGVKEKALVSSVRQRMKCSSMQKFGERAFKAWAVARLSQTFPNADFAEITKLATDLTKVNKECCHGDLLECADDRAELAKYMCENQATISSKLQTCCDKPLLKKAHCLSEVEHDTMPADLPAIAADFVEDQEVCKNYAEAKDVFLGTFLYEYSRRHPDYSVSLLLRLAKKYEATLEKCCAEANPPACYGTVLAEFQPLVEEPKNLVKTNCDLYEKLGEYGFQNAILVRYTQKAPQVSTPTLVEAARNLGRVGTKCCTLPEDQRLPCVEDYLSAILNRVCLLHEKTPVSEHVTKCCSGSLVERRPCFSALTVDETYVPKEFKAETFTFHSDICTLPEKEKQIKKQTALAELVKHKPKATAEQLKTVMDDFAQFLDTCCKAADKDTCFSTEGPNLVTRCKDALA
Method: as §1, §2

[4] = molecular target: T1, ovalbumin (negative control antigen); assay: as above
Method: as §1, §2

human serum albumin [5] = molecular target: T3, human serum albumin; assay: SPR: biotinylated peptide captured on a streptavidin sensorchip, HSA injected for 4 min at 10 µl/min, reference-subtracted
Method: Binding of the 2 synthetic peptides Ala-17D12-CDR3 and Cys-Ala-17D12-CDR3 to HSA was assessed by surface plasmon resonance. The biotinylated peptides are each captured on streptavidin-coated sensorchip SA T071122. HSA binding is assessed at various concentrations. The samples were injected for 4 min at a flow rate of 10 ul/min over the activated and reference surfaces to allow for binding to chip-bound antigen. Next, binding buffer without HSA is sent over the chip at the same flow rate to allow for dissociation of bound HSA. After 10 min, remaining bound analyte is removed by injecting regeneration solution (50 mM NaOH).

[6] = molecular target: T7, rhErbB2-Fc antigen (R&D Systems) (human, UniProt P04626 23-652); assay: SPR: rhErbB2-Fc on a CM5 chip (~3000 RU), 2D3-17D12 injected alone or pre-incubated with 1 or 5 µM HSA (concentration of 2D3-17D12 not given)
T7 construct: Bought; also called HER2 antigen; Her-2 antigen; not shown: Fc part of the bought fusion; not described
Method: (§3) FIG. 11: Surface plasmon resonance analysis of simultaneous binding of 2D3-17D12 fusion protein to HER2 antigen and human serum albumin (HSA). 2D3-17D12 fusion protein was pre-incubated or not with 1 and 5 μM HSA, followed by flow over immobilized 2D3 target antigen, rhErbB2-Fc. The dotted line represents the binding characteristics of 2D3 in presence of 25 μM HSA.

[7] = molecular target: T7, rhErbB2-Fc antigen (R&D Systems); assay: SPR: rhErbB2-Fc on a CM5 chip (~3000 RU), 2D3 injected in the presence of 25 µM HSA (concentration of 2D3 not given)
Method: as §3

irrelevant protein = assay: Surface plasmon resonance control on CM5 chip coated with irrelevant protein; type: binding; settings: 2.5 μM injected; 2400 RU irrelevant protein
rhErbB2-Fc antigen = molecular target: T8, rhErbB2-Fc antigen (Homo sapiens, UniProt P04626); assay: Surface plasmon resonance: simultaneous binding to HER2 and HSA, chip coated with rhErbB2-Fc; settings: pre-incubated with HSA (1 and 5 μM); ~3000 RU rhErbB2-Fc
T8 construct: purchased R&D Systems
Method: as §3
To examine whether the 2D3 Nanobody and the 17D12 CDR3 can simultaneously bind their respective target antigen (Her-2 antigen for 2D3 Nanobody, albumin for 17D12 CDR3), the following experiment was performed. 2D3-17D12 fusion protein was pre-incubated or not with increasing concentration of HSA and then injected on a CM5 chip coated with rhErbB2-Fc antigen (R&D Systems) at a density of ˜3000 RU.

[8] = molecular target: T9, human serum albumin (HSA) (Homo sapiens, UniProt P02768); type: binding
T9 construct: purchased Sigma A5763
Method: FIG. 10: Surface plasmon resonance analysis of the binding of Nanobody® (2D3) and Nanobody® fusion peptide (2D3-17D12) on human serum albumin (HSA). Coating of the chip (CM5) was performed by amine coupling using NHS/EDC for activation and ethanolamine for deactivation (Biacore amine coupling kit). hip coated with 7000 RU human serum albumin (Sigma, 99% pure) and 2500 RU irrelevant protein antigen. 2D3 and 2D3-17D12 was successively injected over the chip in increasing concentrations (1.25 μM, 2.5 μM and 5 μM). HBS-EP was used as flow buffer at a rate of 10 μl min-1.20 μl of sample was injected for 20 s.
The 2D3-17D12 fusion protein […] […] […] (SEQ ID NO: 30) was expressed in E. coli TG1 cells. The fusion protein was purified by IMAC/SEC and binding to HSA was assessed in BIAcore™ 3000. Therefore, a dilution series of 2D3-17D12 fusion protein and 2D3 Nanobody was injected on a CM5 chip coated with high density HSA (7000RU). […] Calculated affinity of 2D3-17D12 for HSA is ˜10 μM.

B1: 17D12 peptide (CDR3 loop with flanking FR3 and FR4 residues), expressed on pIII of M13 phage (peptide)
peptide: DTAVYYCNAAASYSDYDVFGGGTDFGPWGQGTQV
modifications: not fully specified (C-terminus)
notes: also called full length 17D12; not shown: library construct: followed by His6 and c-myc tags, a short Gly-Ala-Ala linker and M13 pIII
For B1, the binding result [1] was “no binding (tested: 100 x10^10 phage/mL)”, the binding result (cynomolgus serum albumin) was “binds” and the “EC50 (read off the curve)” value (human serum albumin [2]) was roughly 5e+10 phage/mL. B1: no binding (bovine serum albumin); no binding [3]; no binding (mouse serum albumin).

With AAASYSDYDVFGGGTDFGPA (peptide, not shown: large carriers, not fully specified, Tested as phage) the binding result (cynomolgus serum albumin) was “binds”, the “EC50 (read off the curve)” value (human serum albumin [2]) was roughly 7e+10 phage/mL and the binding result [4] was “no binding”. AAASYSDYDVFGGGTDFGPA (peptide, not shown: large carriers, not fully specified, Tested as phage): no binding (bovine serum albumin); no binding [3]; no binding (mouse serum albumin).

B2: Ala-17D12-CDR3 synthetic biotinylated peptide (acetyl-AAASYSDYDVFGGGTDFGP-c2 linker-biotin) (peptide)
peptide: Ac-AAASYSDYDVFGGGTDFGP-{c2 linker-biotin}
modifications: reading uncertain
notes: Captured on a streptavidin-coated sensor chip; HSA injected as analyte; also called PEO-100
B2: binds (human serum albumin [5]).

B3: Cys-Ala-17D12-CDR3 synthetic biotinylated peptide (acetyl-CAAASYSDYDVFGGGTDFGP-c2 linker-biotin) (peptide)
peptide: Ac-CAAASYSDYDVFGGGTDFGP-{c2 linker-biotin}
modifications: reading uncertain
notes: Captured on a streptavidin-coated sensor chip; HSA injected as analyte; also called PEO-101.5
B3: binds (human serum albumin [5]).

B4: 2D3-17D12 fusion protein (other)
chain: EVQLVESGGSLVQPGGSLRLSCAASGFTFDDYAMSWVRQVPGKGLEWVSSINWSGTHTDYADSVKGRFTISRNNANNTLYLQMNSLKSEDTAVYYCAKNWRDAGTTWFEKSGSAGQGTQVTVSSDTAVYYCNAAASYSDYDVFGGGTDFGPWGQGTQVGGGS
notes: Soluble VHH-peptide fusion expressed in E. coli TG1 and purified by IMAC/SEC; also called Nanobody fusion peptide (2D3-17D12)
B4: binds [6].

B5: 2D3 Nanobody (VHH that specifically binds to HER2) (VHH)
VHH: EVQLVESGGSLVQPGGSLRLSCAASGFTFDDYAMSWVRQVPGKGLEWVSSINWSGTHTDYADSVKGRFTISRNNANNTLYLQMNSLKSEDTAVYYCAKNWRDAGTTWFEKSGSAGQGTQVTVSS
notes: also called VHH 2D3
B5: binds [7].

B6: 2D3-17D12: fusion of HER2-binding VHH 2D3 with HSA-binding peptide 17D12, expressed in E. coli TG1 (protein)
chain: EVQLVESGGSLVQPGGSLRLSCAASGFTFDDYAMSWVRQVPGKGLEWVSSINWSGTHTDYADSVKGRFTISRNNANNTLYLQMNSLKSEDTAVYYCAKNWRDAGTTWFEKSGSAGQGTQVTVSSDTAVYYCNAAASYSDYDVFGGGTDFGPWGQGTQVGGGS
modifications: 2D3-17D12 fusion protein
In the case of B6, the “Binding to irrelevant protein (SPR control)” value (irrelevant protein) is reported as “no specific binding was detected”, the “Off-rates on rhErbB2-Fc, premixed with HSA compared to control injection” value (rhErbB2-Fc antigen) is reported as “slightly higher but comparable off-rates” and the Kd [8] is reported as roughly 10 µM. For the same molecule, the “Binding to HSA (SPR)” value ([8]; 7000 RU HSA, injected at 1.25, 2.5 and 5 μM) was “dose-dependent binding”.
